According to patent publication US8993518B2, “Compositions and methods for treating antiphospholipid syndrome” (Beth Israel Deaconess Medical Center, Inc., priority 2010, dated 2015):

Tests used:
[1] = target: T1, β2GPI in normal human serum (Homo sapiens, UniProt P02749); experiment: Inhibition of binding of β2GPI in human serum to cardiolipin in the absence of anti-β2GPI antibodies; conditions: 1% human serum, read-out: concentration of inhibitor at 50% inhibition of β2GPI in serum binding to cardiolipin
T1 construct: pooled normal human serum (Innovative Research); tissue Innovative Research; host or cells: pooled normal human serum
T1 sequence (P02749 20-345): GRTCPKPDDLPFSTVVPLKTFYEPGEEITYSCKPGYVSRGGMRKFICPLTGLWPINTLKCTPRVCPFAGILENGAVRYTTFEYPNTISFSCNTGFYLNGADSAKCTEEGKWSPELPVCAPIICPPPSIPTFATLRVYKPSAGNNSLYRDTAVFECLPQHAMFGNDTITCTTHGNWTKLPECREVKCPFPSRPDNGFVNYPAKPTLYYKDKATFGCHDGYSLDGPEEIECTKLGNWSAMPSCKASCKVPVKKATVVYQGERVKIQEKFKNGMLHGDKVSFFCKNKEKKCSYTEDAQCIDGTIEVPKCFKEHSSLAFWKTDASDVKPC
Experimental: (§1) Cardiolipin-coated 96 well plates available as part of the ImmunoWELL cardiolipin IgG test kit (GenBio) were blocked with 0.5% of skim milk and 2% BSA in 20 mM Tris, 100 mM NaCl, 2 mM CaCl2, pH 7.4. The assay buffer contained 20 mM Tris, 100 mM NaCl, 2 mM CaCl2, pH 7.4 with 2% BSA and the wash buffer was 20 mM Tris, 100 mM NaCl, 2 mM CaCl2, pH 7.4. When the purified β2GPI (Haematologic Technologies, Inc.) was used in experiments, 27 mM glycine was added to the assay buffer to account for glycine present in the stock solution of β2GPI. β2GPI bound to cardiolipin was detected with peroxidase-conjugated anti-β2GPI antibodies (Cedarlane, CL20021HP, 2 mg/ml) diluted 1:2500. […] The peroxidase activity of the bound antibodies was detected using 2-2′-azino-di-[3-ethylbenzthizzoline]sulfonate (ABTS) chromogenic reagent by measuring OD at 405 nm. […] The fits of the raw data and the titration data points were then normalized to the maximum binding determined from the fit to facilitate comparison.
(§2) For the inhibition studies, increasing concentrations of A1 or A1-A1 were added to a constant amount of β2GPI (50 nM), normal human serum (1%) or β2GPI-DV (130 nM) and incubated for 1 hour at room temperature. […] Then, samples were incubated on wells for an additional 1 hour and, after washing, the bound β2GPI/anti-β2GPI or β2GPI-DV/anti-tag antibody complexes were detected.

[2] = target: T2, dimeric β2GPI-DV/anti-tag antibody complexes (Homo sapiens, UniProt P02749); experiment: Inhibition of binding of β2GPI-DV to cardiolipin in the presence of dimerization (anti-tag) antibodies; conditions: 30 nM β2GPI-DV, read-out: half-maximal inhibition of binding of β2GPI-DV to cardiolipin
T2 construct: Domain V of β2GPI (residues 244-326), was subcloned into a pET15b vector (Novagen); histidine tag followed by TEV protease site (N, cleaved yes); made in house
T2 sequence (P02749 263-345): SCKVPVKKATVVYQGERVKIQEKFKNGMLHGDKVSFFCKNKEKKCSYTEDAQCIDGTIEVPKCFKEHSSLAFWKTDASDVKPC
Experimental: (§3) Cardiolipin-coated 96 well plates available as part of the ImmunoWELL cardiolipin IgG test kit (GenBio) were blocked with 0.5% of skim milk and 2% BSA in 20 mM Tris, 100 mM NaCl, 2 mM CaCl2, pH 7.4. The assay buffer contained 20 mM Tris, 100 mM NaCl, 2 mM CaCl2, pH 7.4 with 2% BSA and the wash buffer was 20 mM Tris, 100 mM NaCl, 2 mM CaCl2, pH 7.4. When the purified β2GPI (Haematologic Technologies, Inc.) was used in experiments, 27 mM glycine was added to the assay buffer to account for glycine present in the stock solution of β2GPI. β2GPI bound to cardiolipin was detected with peroxidase-conjugated anti-β2GPI antibodies (Cedarlane, CL20021HP, 2 mg/ml) diluted 1:2500. To detect β2GPI-DV bound to cardiolipin, we used peroxidase-conjugated anti-HA antibody (Abcam, ab1265, 1 mg/ml) directed to HA epitope tag at the N-terminus of β2GPI-DV diluted 1:2500. The peroxidase activity of the bound antibodies was detected using 2-2′-azino-di-[3-ethylbenzthizzoline]sulfonate (ABTS) chromogenic reagent by measuring OD at 405 nm. […] The fits of the raw data and the titration data points were then normalized to the maximum binding determined from the fit to facilitate comparison.
(§4) […] Then, samples were incubated on wells for an additional 1 hour and, after washing, the bound β2GPI/anti-β2GPI or β2GPI-DV/anti-tag antibody complexes were detected.

[3] = target: T3, β2GPI/anti-β2GPI antibody complexes (β2GPI in normal human serum) (Homo sapiens, UniProt P02749); experiment: Inhibition of binding of β2GPI in human serum to cardiolipin in the presence of anti-β2GPI antibodies; conditions: 0.04% human serum, read-out: half-maximal inhibition of binding of β2GPI in serum to cardiolipin
T3 construct: pooled normal human serum (Innovative Research); tissue Innovative Research; host or cells: pooled normal human serum
T3 sequence (P02749 20-345): T1 sequence (P02749 20-345)
Experimental: as §3, §4

[4] = target: T4, domain V of β2GPI (Homo sapiens, UniProt P02749); conditions: Lee et al., Structure 18:366-376, 2010; read-out: affinity of A1 for domain V of β2GPI; cited from earlier work
T4 sequence (P02749 263-345 limits assumed): T2 sequence (P02749 263-345)

[5] = target: T5, β2GPI purified from human plasma (Homo sapiens, UniProt P02749); experiment: Inhibition of binding of purified β2GPI to cardiolipin in the absence of anti-β2GPI antibodies; conditions: in the absence of anti-β2GPI antibodies (FIG. 5)
T5 construct: We used β2GPI purified from human plasma available from Haematologic Technologies, Inc; purchased Haematologic Technologies, Inc; host or cells: human plasma
T5 sequence (P02749 20-345): T1 sequence (P02749 20-345)
Experimental: as §1, §2

[6] = target: T6, β2GPI/anti-β2GPI antibody complexes (β2GPI purified from human plasma) (Homo sapiens, UniProt P02749); experiment: Inhibition of binding of purified β2GPI to cardiolipin in the presence of anti-β2GPI antibodies; conditions: 10 nM purified β2GPI, one-site inhibition fit, read-out: half-maximal inhibition of binding of purified β2GPI to cardiolipin
T6 construct: We used β2GPI purified from human plasma available from Haematologic Technologies, Inc; purchased Haematologic Technologies, Inc; host or cells: human plasma
T6 sequence (P02749 20-345): T1 sequence (P02749 20-345)
Experimental: as §3, §4

[7] = target: T7, domain V of β2GPI (β2GPI-DV) (Homo sapiens, UniProt P02749); experiment: Inhibition of binding of isolated domain V of β2GPI to cardiolipin in the absence of antibodies; conditions: in the absence of dimerization antibodies, read-out: concentration at half-maximal inhibition of binding of domain V to cardiolipin
T7 construct: Domain V of β2GPI (residues 244-326), was subcloned into a pET15b vector (Novagen); histidine tag followed by TEV protease site (N, cleaved yes); made in house
T7 sequence (P02749 263-345): T2 sequence (P02749 263-345)
Experimental: as §1, §2

[8] = Binding of β2GPI in normal human serum to cardiolipin-coated surface
Experimental: as §1
(§5) For the binding studies, 50 μl of increasing concentrations of either β2GPI (Haematologic Technologies, Inc.), pooled normal human serum (Innovative Research), or the purified recombinant β2GPI-DV were applied to wells and incubated for 1 hour at room temperature. […] Then, the samples were applied to cardiolipin, incubated for 1 hour, washed, and bound β2GPI or β2GPI-DV was detected.

[9] = Binding of purified β2GPI to cardiolipin-coated surface; design: species or system human; conditions: read-out: half-maximal binding of purified β2GPI to cardiolipin
Experimental: as §1, §5

[10] = Binding of β2GPI-DV to cardiolipin-coated surface; conditions: read-out: binding of β2GPI-DV to cardiolipin, one-site model fit
Experimental: as §1, §5

[11] = in the absence of anti-β2GPI antibodies
[12] = in the presence of anti-β2GPI antibodies

“A1: Monomeric first LA module, fragment of mouse ApoER2 (residues 12-47 of the mature protein)” gave an IC50 [1] of 176 ± 37 µM, an IC50 [2] of 204 ± 33 µM and an IC50 [3] of 218 ± 21 µM. The Kd [4] was 1000 µM, the “inhibition of binding of purified β2GPI to cardiolipin” value [5] was “only weakly inhibited” and the IC50 [6] was 191 ± 34 µM. For the same molecule, the IC50 [7] was 188 ± 44 µM.

B1: β2GPI: Beta2-glycoprotein I, in pooled normal human serum or purified from human plasma (Haematologic Technologies, Inc.) (protein)
chain: T1 sequence (P02749 20-345)
For B1, the “half-maximal binding of β2GPI in serum to cardiolipin” value [8, 11] was 0.40±0.05 % of serum, the “half-maximal binding of β2GPI in serum to cardiolipin” value [8, 12] was 0.028±0.004 % of serum and the EC50 [9, 11] was 0.043 ± 0.004 µM. It also gave an EC50 [9, 12] of 0.0024 ± 0.0004 µM.

B2: A1-A1: Dimeric inhibitor: two A1 (LA) modules from ApoER2 connected by a flexible Gly-Ser-Ser-Gly linker, SEQ ID NO: 1 (protein)
chain: AECEEDQFRCRNERCIPLVWRCDEDNDCSDNSDEDDCGSSGCEEDQFRCRNERCIPLVWRCDEDNDCSDNSDEDDCEA
With B2 the “inhibition of binding of purified β2GPI to cardiolipin” value [5] was “only weakly inhibited”.

B3: β2GPI-DV: Recombinant isolated domain V of β2GPI (residues 244-326), with an N-terminal HA tag in the binding assays (protein)
chain: YPYDVPDYASCKVPVKKATVVYQGERVKIQEKFKNGMLHGDKVSFFCKNKEKKCSYTEDAQCIDGTIEVPKCFKEHSSLAFWKTDASDVKPC
Work on B3 yielded an EC50 ([10]; in the absence of anti-tag antibodies) of 0.112 ± 0.021 µM and an EC50 ([10]; in the presence of anti-tag antibodies) of 0.019 ± 0.001 µM.
